Measurements taken from patent US20230149544A1 (ALTRUBIO, published 2023).

Target: T1, human PSGL-1 (human, UniProt Q14242 42-412)
T1 sequence: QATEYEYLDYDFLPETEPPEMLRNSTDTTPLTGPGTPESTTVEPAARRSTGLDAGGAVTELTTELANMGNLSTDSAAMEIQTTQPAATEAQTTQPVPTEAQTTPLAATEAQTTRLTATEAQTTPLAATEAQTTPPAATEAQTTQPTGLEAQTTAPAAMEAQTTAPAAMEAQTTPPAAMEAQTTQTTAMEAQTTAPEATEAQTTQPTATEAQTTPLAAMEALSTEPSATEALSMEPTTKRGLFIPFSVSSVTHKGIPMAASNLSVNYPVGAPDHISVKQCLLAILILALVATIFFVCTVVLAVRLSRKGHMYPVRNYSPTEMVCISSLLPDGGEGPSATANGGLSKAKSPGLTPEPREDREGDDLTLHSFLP
Experiment: cell-based or functional assay

B1: anti-PSGL-1 antibody 15A7H (antibody, human IgG4 S228P, kappa, V domains shown)
VH: EVQLVESGGGLVQPGGSLRLSCAASGFTFSSFGMHWVRQAPGKGLEWVAYINGGSSTIFYANAVKGRFTISRDNAKNTLYLQMNSLRAEDTAVYYCARYASYGGGAMDYWGQGTLVTVSS
VL: DIQMTQSPSSLSASVGDRVTITCRSSQSIVHNDGNTYFEWYQQKPGKAPKLLIYKVSNRFSGVPSRFSGSGSGTHFTLTISSLQPEDFATYYCFQGSYVPLTFGQGTKVEIKR
- EC50 15A7H, single treatment; apoptosis of activated T cells (Annexin V/PI, 48 h, with cross-linker), donor N084, ratio block 1.1:1: 0.328 µg/mL
- EC50 15A7H, single treatment; apoptosis of activated T cells (Annexin V/PI, 48 h, with cross-linker), donor N084, ratio block 3.3:1: 0.328 µg/mL
- EC50 15A7H, single treatment; apoptosis of activated T cells (Annexin V/PI, 48 h, with cross-linker), donor N089, ratio block 1.1:1: 0.816 µg/mL
- EC50 15A7H, single treatment; apoptosis of activated T cells (Annexin V/PI, 48 h, with cross-linker), donor N089, ratio block 3.3:1: 0.865 µg/mL
- EC50 15A7H, single treatment; apoptosis of activated T cells (Annexin V/PI, 48 h, with cross-linker), donor N102, ratio block 0.37:1: 0.959 µg/mL
- EC50 15A7H, single treatment; apoptosis of activated T cells (Annexin V/PI, 48 h, with cross-linker), donor N102, ratio block 1.1:1: 0.959 µg/mL
- EC50 15A7H, single treatment; apoptosis of activated T cells (Annexin V/PI, 48 h, with cross-linker), donor N102, ratio block 3.3:1: 0.959 µg/mL
- EC50 15A7H, single treatment; apoptosis of activated T cells (Annexin V/PI, 48 h, with cross-linker), donor N103, ratio block 0.37:1: 1.4 µg/mL
- EC50 15A7H, single treatment; apoptosis of activated T cells (Annexin V/PI, 48 h, with cross-linker), donor N103, ratio block 1.1:1: 1.4 µg/mL
- EC50 15A7H, single treatment; apoptosis of activated T cells (Annexin V/PI, 48 h, with cross-linker), donor N103, ratio block 3.3:1: 1.4 µg/mL
